Two molecules from US20210009683A1 can be followed below.

This experiment has as its target T1, CLEC-2 on washed mouse platelet (mouse) (UniProt Q9JL99).
T1 sequence (looked up): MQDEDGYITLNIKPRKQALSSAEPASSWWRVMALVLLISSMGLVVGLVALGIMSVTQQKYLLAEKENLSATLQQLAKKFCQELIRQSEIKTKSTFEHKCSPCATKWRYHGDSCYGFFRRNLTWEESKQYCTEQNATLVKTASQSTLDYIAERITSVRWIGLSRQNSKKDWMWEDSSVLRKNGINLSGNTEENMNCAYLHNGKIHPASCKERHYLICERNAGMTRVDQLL
Kind of experiment: cell-based or functional assay.

B1: wild-type human Aggrus expressed in CHO cells (CHO/Aggrus-WT) (ligand, UniProt Q86YL7 23-162, looked up)
chain: ASTGQPEDDTETTGLEGGVAMPGAEDDVVTPGTSEDRYKSGLTTLVATSVNSVTGIRIEDLPTSESTVHAQEQSPSATASNVATSHSTEKVDGDTQTTVEKDGLSTVTLVGIIVGVLLAIGFIGAIIVVVMRKMSGRYSP
B1 returned a platelet aggregation-starting time (light transmittance, washed mouse platelet mixed with CHO cells) of 6 min.

B2: Aggrus-D48A expressed in CHO cells (CHO/Aggrus-D48A) (ligand, human, UniProt Q86YL7 23-162, looked up)
chain: ASTGQPEDDTETTGLEGGVAMPGAEADVVTPGTSEDRYKSGLTTLVATSVNSVTGIRIEDLPTSESTVHAQEQSPSATASNVATSHSTEKVDGDTQTTVEKDGLSTVTLVGIIVGVLLAIGFIGAIIVVVMRKMSGRYSP
In turn, B2 yielded a delay of the start of platelet aggregation against CHO/Aggrus-WT of 8 min and a platelet aggregation-starting time (light transmittance, washed mouse platelet mixed with CHO cells) of 14 min.
